{"source": "the DeepSol protein solubility set"}
{"experiment": "soluble on expression in E. coli; label from the status in PepcDB or PDB records"}
{"sequence": "MKKYILTLILALASLGLYAQTNRNKTIINAALHGWEYEIKAGVNLGGTAPLPFPEEIRSIDGYNPTLSITIEGNMTKWLDTKKKWGIITGLRLENKGMRTKATVKNYNMEIIGYDGNRLKGNWTGGVRTKVQNSYITIPVLAAYKLSPRTTLKLGPYFSYLMDGDFSGHVYEGYLRETNPTGDKINFTNGAIATYDFSGDLRKFQWGVQAGVDWKAFKHLKVHADLNWGLNDIFNKDFKTVTFDMYAIYLNVGFGYAF", "soluble on expression in E. coli": "not soluble"}
{"sequence": "MKLASLKSTRSRDGELCIVNRLLTAAIRVPHIASTLQYALDHWDVVEPKLQLVYQQLNDNQIEDAFAFAPELCASPLPRAYQWADGSAYVNHVELVRKARGAEMPADFWTNPLMYQGGSDAFLGPRDPILVSSEAYGIDFESEVAVITDDVPMGIDHTNAAHHIKLLMLVNDVSLRNLIPEELAKGFGFFQSKPASSFSPVAITPDELGSYWDGQRVNLPLISHLNEQLFGQPNAGVDMTFSFPELIQHAAKTRFLTAGTIIGSGTVSNLDRSKGSSCIAEKRMLEMIEFGQAKTPFMRFGDRIRIEMLDGQGYSLFGSIDQIVTKYDKDSL", "soluble on expression in E. coli": "not soluble"}
{"sequence": "MKLDPQTLAHITSATLGNYNRVADDFREGTRDHDVSQNIDALLRHIEGSAPWQILDFGCGPGRDLKTFTAMGHVAVGLDGSERFAEMARAETGCEVFQQNFLELDLPQGRFDGIFANAVLFHIPRQELPRVLRELYATLKPGGVLFSSNPRGQNQEGWQGERYGAYHDLETWRQLLTDAGFAELEHYYRPLEHHHHHH", "soluble on expression in E. coli": "soluble"}
{"sequence": "MKLERVLPFARSLLQTAVKEGDYAVDATLGNGHDTCFLAEIVGDNGKVFGFDIQKEAIESSTTRLKEKELFERTVLVHDSHDTLLSILPEDAKGKVTGAIFNLGYLPGGDKHIVTKPNSTISAIEQLLEVMAPEGIIVLVIYHGHPEGQVERDAVLKFAEELDQKQAHVLRYGFINQQNNPPFIVAIEKRLEHHHHHH", "soluble on expression in E. coli": "soluble"}
{"sequence": "MKLFHTADWHLGKLVHGVYMTEDQKIVLDQFVQAVEEEKPDAVIIAGDLYDRAIPPTEAVDLLNDVLQKIVIDLQTPVIAVAGNHDSPDRIHFGSSLMKKQGLHIVGQFQFPYEPVVLNDEYGEVHFHLIPYADPSIVRHVLKNEDVRSHDDAMRIFMNELSETMDKEARHVFVGHAFVTSSGEAEENTSDAERPLSIGGAEYVNSHYFDKFHYTALGHLHQAHFVRNETIRYSGSPLAYSISEEKHKKGYYIVELNETGEVAIEKRLLSPRRKMRTVEAKIDELLQHPVSEDYVFVKLLDENPVLQPMEKIRSVYPNAMHVERAMQRRELTDTNEVTVSRHKTDDLSLLKAFYKEMKGLDLSEEKERLFIDVLQTVQEREGERG", "soluble on expression in E. coli": "not soluble"}
{"sequence": "MKLIIHQKWYLQQVKDTFTNLQAPRLHWALRNALNTAAKQVERFTEKQVADLSSAQIKRIRRGVYIKEKATARFLETDLIGSGTPLPLKFFKAKETKHGVTYTLFGKKQILTHGFIKGGSFPKRVDLKMGGNVFQRDDGDQFPIAKQEGPSIAKVMSKPEIASAIAQYANERLTKNIQRQLARQEYAANKKG", "soluble on expression in E. coli": "not soluble"}
{"sequence": "MKLKKIVFTLIALGLFSCKTTSVLVKNEPQLKTPKNVILLISDGAGLSQISSTFYFKSGTPNYTQFKNIGLIKTSSSREDVTDSASGATAFSCGIKTYNAAIGVADDSTAVKSIVEIAALNNIKTGVVATSSITDATPASFYAHALNRGLEEEIAMDMTESDLDFFAGGGLNYFTKRKDKKDVLAILKGNQFTINTTALTDFSSIASNRKMGFLLADEAMPTMEKGRGNFLSAATDLAIQFLSKDNSAFFIMSEGSQIDWGGHANNASYLISEINDFDDAIGTALAFAKKDGNTLVIVTSDHETGGFTLAAKKNKREDGSEYSDYTEIGPTFSTGGHSATLIPVFAYGPGSEEFIGIYENNEIFHKILKVTKWNQ", "soluble on expression in E. coli": "soluble"}
{"sequence": "MKLLLLIFVPFVTCGLTCMDFMIDCPRIVYYCDETYVQNQCQFSCGICKQDPGVCGDTYFDCDMYDTKCNSPSFQRQCAGTCGLCPGACEDIWDGCSHFLAPCSDDIKSLCPIKCGLCNSTTTPMILTTITPVDPRCVDAGNQCANYSPPCSDDVKIFCPATCGSCSNGTTGVPLVLTTLTPELTTVTVEPITSTLKPTTTTITPTTTTKLPTTTTKKLPPTTPKPPCKDSSPNCAGWAKNGFCTNTFYPPEKRKEYCGKTCRMC", "soluble on expression in E. coli": "not soluble"}
{"sequence": "MKLNNHNLKEIYSLSLNELKEELFKLGLKSFISKQIYSWIYQKRIFNFDKFSNIAKNNVIILKENFSNNLLKINSYQSNSDGSIKFEFLTDKNLIINCMIIKFKNGFLIKINPFGINFKKEIINLSTNELVLQILLIQQFLDQRKLGNITNVIIKGLQDSLLNMDVVSNFINIINNENGLNIGKRKIAVWTSGINVDLIKWGQLQNQIELIISMNASNSLIYQKIMLKKLNQNWSFLKLIEQIKAYTKITNNRVVLEYLLIDKINDDLNYANELVELLKNILCYVLLIPYNLNNYRTSANLDDFFNILSVNKIRISKRIRKSNDLDISFKQLKIKELEHHHHHH", "soluble on expression in E. coli": "not soluble"}
{"sequence": "MKLPAPPVLLFLCGMFSLPMALADSGIQLDTPKGGWRTRAMDGEQYIQEVNYPASSVNTPQGQADTARIRGQIKGAPKANKEPGKLIVNGVSMPLKFDEQGSFDRPYAFPNGSNSVEVRSPDGQQRQRVQFLNTGGGVTPPKLRVLLSWDSDNTDLDLHLVTPDGAHIWYGDRVAPNGATLDVDVTTGYGPEIFSMPAPLKGQYLVYVNYYGGGYRSDDDEDGGQENAVQPLTTAQVTVITEEGTPDEKSETFVVPMRAPGELTLVRSFSYPLEHHHHHH", "soluble on expression in E. coli": "not soluble"}
{"sequence": "MKLPISTISPIHYIKSVVSSRETRSESNKSRRTFANTEWNKIIRETLYLETIYIPLDATSHSPDIIFQLQSPVEPKVLTVGVACKGRWKSEGIGWSDIIDEAKKFLDPLYDQVLSSAMDYHHCMLIIVSTKLSLNVSNELGN", "soluble on expression in E. coli": "not soluble"}
{"sequence": "MKLSEYGLQLQEKQKLRHMYGVNERQFRKTFEEAGKMPGKHGENFMILLESRLDNLVYRLGLARTRRQARQLVTHGHILVDGSRVNIPSYRVKPGQTIAVREKSRNLQVIKEALEANNYIPDYLSFDPEKMEGTYTRLPERSELPAEINEALIVEFYSR", "soluble on expression in E. coli": "soluble"}
{"sequence": "MKLSFSLPPKSKSRVSLNSDRKDCIGAGNLKQFVTEFDPSETLTDSKPKYVIPPIEDRRRSYRSIDLPLPSASGLQFEAEIPSGDGSDNNITYGLNLRQKVENVEKPEPVEKMLLKSMRTDLESLPDAPEKEDFESFPVDGFGEALLAGYGWKPGQGIGLKAKEDVKIVEYEKWSGNEGFGFGKSDKAMKMIDNKLVGSGSHEEVKVGINKIENMEKDRVVRKRNRETEGESRTEVKACKQNYRGQTRETREKTSWLRSHIKVRIISKDVKGGRLYLKKAVVTDVVGPTSCDIAMDETQELVQGIDQELLETALPRRGGSVLVLSGRHKGVYGRLVEKDLDKETGVVCDADSQEMLHVKLDQVAEYIGDPADIGY", "soluble on expression in E. coli": "soluble"}
{"sequence": "MKLSKRQEQIIAVVKEHQPVSGERISDILAVSRATLRSDLSFLTLSGILKASPKVGYTYESDNMEAFFFFDVFQTKVQEIMSPPLMVAQDTSIRDAITNLFMYDVGSLYVMDEAKELLGVLSRKDLLRASLNTNIDGTPVAVCMTRVPHVKTCTPEFTILEAADTLQKYEVDSLPVVEKENPKKVIGKITKTKILTYITQQAKEAAQNR", "soluble on expression in E. coli": "not soluble"}
{"sequence": "MKLTDRLLKIASLVSDGKKIADIGTDHGYIPVYLLKEGKVPFAVLADVNKGPLDNAHKEVIQNNLLDKVDLRLGSGIEILEIGEVEEVIIAGMGGILISELLEAKKEVAHNVEKLILQPMQAQEELRYYLLNNGYEILEEVLVREDFRIYEIIVAKYTGKNTIIEDEIYYEVGIKLLENKDSLFNDFIEKKIKTYSSIVNKLEGKNGEAIDKKRKESEVAIKKLENLIK", "soluble on expression in E. coli": "not soluble"}
{"sequence": "MKLVTISGPPSSGKTAVLAGVIRAMMASGLKVGALKYDCLATNDDDVFRAIGVPVQTGLSGNLCPDHYFVSNIEECLDWGIREGFDFLLSESAGLCNRCAPHIKGVLAVCVIDNLMGATTPKKIGPMLKYADIVVITKGDIVSQAEREVFAFQVRRANPRAKIMHVNGITGQGAGELASQFLLAPETTCLDGSRLRFSMPAALCSYCLGETRIGMEFQLGNVKKIKMSEEPARLEHHHHHH", "soluble on expression in E. coli": "soluble"}
